Assay results: patent US20260265404A1 (published 2026)
Residue numbers refer to the chain shown, from its start.

B1: 1A9 antibody (human CD33^PAN antibody clone, hybridoma-derived) (antibody, V domains shown)
VH: EVQLVESGGGLVQPGGSLRLSCAASGFTFSIYDMHWVRQATGKGLEWVSAIGTAGDTYYAGSVKGRFTISRENAKNSLYLQMNSLRAGDTAVYYCAREYSGYYFDYWGQGTLVTVSS
VL: AIQMTQSPSSLSASVGDRVTITCRASQDIRNDLGWYQQKPGKAPKILIYGASSLQSGVPSRFSGSGSGTDFTFTISSLQPEDFATYYCLQEYNYPCTFGQGTKLEIK
B2: 1E6 antibody (human CD33^PAN antibody clone, hybridoma-derived) (antibody, V domains shown)
VH: QVQLVESGGGVVQPGRSLRLSCAASGFTFSSYDIHWVRQAPGKGLEWVAVIWYDGSHNYYSDSVKGRFTISRDNSKNTLYLQMNSLRAEDTAVYYCARDYSGSYYDYWGQGTLVTVSS
VL: B1 VL with D28G, I46L, G50A, S53N, F73L, E91D, N93S, C96R, L104V
B3: 1H10 antibody (human CD33^PAN antibody clone, hybridoma-derived) (antibody, V domains shown)
VH: QVQLVQSGAEVKKPGASVKVSCKGSGYIFTSYDMHWVRQAPGQGLEWMGIIDPSGGSTSYAQKFQGRVTMTRDTSMSTVYMELSSLRSEDTAVYYCTRDYSWSYFDYWGQGTLVTVSS
VL: B1 VL with D28G, N31I, D32Y, I46L, G50A, A51T, F73L, E91D, C96W, L104V
B4: 1B9 antibody (human CD33^PAN antibody clone, hybridoma-derived) (antibody, V domains shown)
VH: B2 VH with T28I, Y105F
VL: B1 VL with Q37L, K39R, I46L, G50A, F73L, E91D, N93S, C96R, K103T, L104V
B5: 2D3 antibody (human CD33V-set antibody clone, hybridoma-derived) (antibody, V domains shown)
VH: EVQLLESGGGLVQPGGSLSLSCAASGFTFSIYAMSWVRQAPGKGLEWVSAISDSGGTTYYADSVKGRFTISRDNSKNMLYLEMNSLRAEDTAIYYCAKRTRYFNGMDVWGQGTTVTVSS
VL: EIVMTQSPATLSLSPGERATLSCRASQSGSSSFLSWYQQKPGQAPRLLIYGASTRATGIPARFSGSGSGTDFTLTISSLQPEDFAVYYCQQDYNLPFTFGPGTKVDIK
B6: 1H8 antibody (human CD33V-set antibody clone, hybridoma-derived) (antibody, V domains shown)
VH: QVQLVESGGGVVQPGGSLRLSCAASGFTFGSYGMHWVRQAPGKGLEWVAVIWYDGSNEYYADSVKGRFTVSRDNSKHTLYLQMNRLRAEDTAVYYCARDLDYDSSGGDYWGQGILVLVSS
VL: EIVLTQSPDFQSVTPKEKVTITCRASQNIGGNLHWYQQKPDQSPKLLIRYATQPFSGVPSRFGGSGSGTDFTLTINSLEAEDAATYYCHQSSSLPLTFGGGTKVEIK
B7: 1D2 antibody (human CD33^PAN antibody clone, hybridoma-derived) (antibody, V domains shown)
VH: B2 VH with H57Q, N58K, S61A
VL: AIQMTQSPSSLSASVGDRVTITCRASQGIRNDLGWYQQKPGKAPELLIYATSSLQSGVPSRFSGSGSGTDFTLIISSLQPEDFATYYCLQDYSYPRTFGQGTKVEIK

Columns and labels:
[1] = biological target: T1, human full-length CD33 (CD33^FL) (UniProt P20138 18-364); experiment: SPR (Carterra); 4 µg/mL
T1 sequence (P20138 18-364): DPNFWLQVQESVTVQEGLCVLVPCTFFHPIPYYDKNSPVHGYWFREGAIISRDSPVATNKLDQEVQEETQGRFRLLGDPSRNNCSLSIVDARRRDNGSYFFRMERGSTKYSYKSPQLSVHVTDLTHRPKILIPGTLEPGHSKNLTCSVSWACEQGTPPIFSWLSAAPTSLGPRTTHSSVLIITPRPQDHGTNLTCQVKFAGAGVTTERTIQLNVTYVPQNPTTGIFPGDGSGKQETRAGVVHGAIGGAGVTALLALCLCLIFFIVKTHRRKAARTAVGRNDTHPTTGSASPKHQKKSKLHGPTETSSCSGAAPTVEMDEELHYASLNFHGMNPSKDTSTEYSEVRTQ

[2] = biological target: T1, human full-length CD33 (CD33^FL); experiment: SPR (Carterra); hybridoma supernatant
[3] = biological target: T1, human full-length CD33 (CD33^FL); experiment: SPR (Carterra); 1 µg/mL
[4] = biological target: T1, human full-length CD33 (CD33^FL); experiment: SPR (Biacore T100)

Row | Binder | Kd [1] [nM] | Kd [2] [nM] | Kd [3] [nM] | Kd [4] [nM]
1 | B1 | 130 | 67 | 36 | –
2 | B2 | 78 | 69 | 67 | –
3 | B3 | 42 | 112 | 13 | 3.71
4 | B4 | – | 77 | – | –
5 | B5 | 27 | – | 18 | 4.89
6 | B6 | 40 | – | 24 | –
7 | B7 | – | 116 | – | –
